This is an account of results in patent US20190077844A1 (published 2019).

For assay [1], the target named is T1, Human glypican-3 on cells (Huh7, Hep3B, H446, HepG2; Hep3B xenograft tissue) (UniProt P51654 25-554). As to the kind of experiment: flow cytometry; Hep3B cells.
Assay [2] deals with T1, Human glypican-3 on cells (Huh7, Hep3B, …). Kind of assay: flow cytometry; H446 cells. On the technique in general: Flow cytometry measures light scatter and fluorescence of single cells or particles in a stream.

T1 sequence (P51654 25-554): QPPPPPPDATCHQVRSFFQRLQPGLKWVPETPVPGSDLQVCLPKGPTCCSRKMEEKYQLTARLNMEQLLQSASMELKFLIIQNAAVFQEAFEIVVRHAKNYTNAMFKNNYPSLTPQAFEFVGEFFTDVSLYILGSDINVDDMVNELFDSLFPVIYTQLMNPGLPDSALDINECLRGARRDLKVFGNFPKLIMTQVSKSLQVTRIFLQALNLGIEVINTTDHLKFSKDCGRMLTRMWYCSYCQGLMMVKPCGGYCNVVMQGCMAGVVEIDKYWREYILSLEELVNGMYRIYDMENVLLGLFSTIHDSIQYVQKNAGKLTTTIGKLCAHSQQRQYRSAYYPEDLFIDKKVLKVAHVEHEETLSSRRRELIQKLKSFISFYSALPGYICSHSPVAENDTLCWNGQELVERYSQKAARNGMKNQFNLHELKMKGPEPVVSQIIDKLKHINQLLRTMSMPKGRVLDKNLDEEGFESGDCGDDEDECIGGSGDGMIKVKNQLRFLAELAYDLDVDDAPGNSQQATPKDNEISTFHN

B1: ADX_6912_G02 tubulysin analog drug conjugate DAR2 (designed binder)
chain: MGVSDVPRDLEVVAATPTSLLISWSDDYHAHRYYRITYGETGGNSPVQEFTVPGEHVTATISGLKPGVDYTITVYAVTYDGEKAATDWSISINYRTPCPPPPPCHHHHHH
modifications: tubulysin analog-linker (formula IV) on each of the two cysteines of the C-terminal PCPPPPPC
In the case of B1, the EC50 in assay [1] was found to be 0.537 nM; in assay [2], 0.573 nM.

B2: ADX_6077_F02 tubulysin analog drug conjugate DAR1 (designed binder)
chain: MGVSDVPRDLEVVAATPTSLLISWSDDYHAHRYYRITYGETGGNSPVQEFTVPGEHVTATISGLKPGVDYTITVYAVTYDGEKAATDWSISINYRTPCHHHHHH
modifications: tubulysin analog-linker (formula IV) on the cysteine of the C-terminal PC via maleimide
Consider B2, for which the values for the EC50 in assay [1] and in assay [2] were 0.664 nM and 0.386 nM, respectively.

A word on the EC50: it is the concentration needed to bring the measured effect to its halfway point. A lower EC50 goes with an effect from little substance.
